Measured values published in patent US20220041702A1 (Innovent, published 2022).
One block for each binder: values may come before it.

How the values were obtained:
[1] = molecular target: T1, GITR expressed on cell surface (CHO cells overexpressing GITR) (Homo sapiens (Human), UniProt Q9Y5U5 26-241); assay: FACS on CHO cells overexpressing GITR, PE-conjugated anti-human Fc detection
T1 construct: also called GITR on cell surface
T1 sequence: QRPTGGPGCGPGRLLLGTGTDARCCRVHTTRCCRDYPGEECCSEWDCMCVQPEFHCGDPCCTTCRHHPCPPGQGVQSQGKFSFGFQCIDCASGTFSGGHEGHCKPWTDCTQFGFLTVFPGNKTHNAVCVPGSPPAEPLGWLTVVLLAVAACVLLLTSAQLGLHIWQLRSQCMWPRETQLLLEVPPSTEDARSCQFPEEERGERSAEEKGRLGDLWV

human OX40-his = molecular target: T2, human OX40-his (human, UniProt P43489 29-216); assay: ForteBio Octet BLI, antibody on AHC tip, human OX40-His 100 nM in solution, monovalent
T2 construct: Bought soluble protein
T2 sequence (looked up): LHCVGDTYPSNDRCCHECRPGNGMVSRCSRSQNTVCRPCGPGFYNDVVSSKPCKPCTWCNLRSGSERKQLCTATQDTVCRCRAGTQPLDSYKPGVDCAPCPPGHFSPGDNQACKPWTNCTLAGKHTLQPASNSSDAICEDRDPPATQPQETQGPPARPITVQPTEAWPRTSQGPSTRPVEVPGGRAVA
Method: A ForteBio affinity assay was performed according to the method reported in the literature (Estep, P, et al., High throughput solution Based measurement of antibody-antigen affinity and epitope binning MAbs, 2013, 5(2): p. 270-278). Briefly, the AHC sensor (Pall, Catalog No.: 1506091) was immersed in a SD buffer (PBS 1×, BSA 0.1%, Tween 20 0.05%) and equilibrated at room temperature, half an hour before the experiment. […] The anti-human IgG Fc biosensor AHC was immersed in each well containing the antibody solution, and immersed at room temperature for 600 s to load the samples. The sensor was then washed in the SD buffer until it returned to the baseline, and then immersed in a well containing 100 μL of the antigen solution to monitor the binding of the antibody to the antigen. The sensor was then transferred to a well containing 100 μL of the SD buffer to monitor the antibody dissociation. The rotation speed was 400 rpm and the temperature was 30° C. The background-corrected association and dissociation curves were fitted by the Octet analysis software (ForteBio) to generate the binding rate constant (kₒₙ) and dissociation rate constant (kdis), which are then used to calculate the equilibrium dissociation constant (KD).

[2] = molecular target: T3, human OX40 expressed on the surface of cells (CHO cells overexpressing human OX40) (human, UniProt P43489 29-277); assay: FACS on CHO-OX40 cells, PE anti-human Fc
T3 construct: whole, on cells; also called CHO-OX40 cells; CHO cells overexpressing OX40
T3 sequence (looked up): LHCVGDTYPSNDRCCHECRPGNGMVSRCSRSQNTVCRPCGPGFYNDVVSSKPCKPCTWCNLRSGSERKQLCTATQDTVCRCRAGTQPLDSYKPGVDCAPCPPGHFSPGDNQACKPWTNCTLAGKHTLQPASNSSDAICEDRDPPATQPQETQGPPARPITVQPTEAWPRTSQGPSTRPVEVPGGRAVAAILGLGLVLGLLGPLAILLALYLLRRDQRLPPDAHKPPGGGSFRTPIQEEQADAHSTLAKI

binding result [1]: no binding
B1: IgG1 control antibody (antibody, V domains shown)
VH: EVRLLESGGGLVQPGGSLRLSCAASGFTFSNYAMGWVRQAPGKGLEWVSAISGSGGSTYYADSVKGRFTTSRDDSKNALYLQMNSLRAEDTAVYYCARGGPGWYAADVWGQGTTVTVSS
VL: DIQMTQSPSSLSASVGDRVTITCRASQSISSYLNWYQQKPGKAPKLLIYAASSLQSGVPSRFSGSGSGTDFTLTISSLQPEDFATYYCQQADLPAFAFGGGTKVEIKR
notes: Negative control; also called IgG1 negative control

Kd (human OX40-his): 215 nM
koff (human OX40-his): 0.029 s⁻¹
kon (human OX40-his): 135000 M⁻¹ s⁻¹
EC50 [2]: 2.19 nM
B2: anti-OX40 antibody ADI-20112 (antibody, human IgG1, kappa, V domains shown)
VH: QVQLVESGGGVVQPGRSLRLSCAASGFTFSSYGMHWVRQAPGKGLEWVAVISYDGSNKYYADSVKGRFTISRDNSKNTLYLQMNSLRAEDTAVYYCARGRPWYSETGTSAFDIWGQGTMVTVSS
VL: DIQMTQSPSSLSASVGDRVTITCQASQDISNYLNWYQQKPGKAPKLLIYDASNLETGVPSRFSGSGSGTDFTFTISSLQPEDIATYYCQQSDHYPTFGGGTKVEIKR
notes: also called parent anti-OX40 antibody
